# Results: patent publication US20130225434A1 (BOARD OF TRUSTEES OF THE UNIVERSITY OF ILLINOIS, published 2013)
# Where a chain is given by its changes, count along the chain named. Numbers in names are those of the source. Square brackets hold non-standard residues; d marks the D form. * marks the point of attachment. Biotin = O=C1N[C@H]2[C@H](CS[C@H]2CCCCC(=O)*)N1; pY = N[C@@H](Cc1ccc(OP(=O)(O)O)cc1)C(=O)O; pT = C[C@@H](OP(=O)(O)O)[C@H](N)C(=O)O; pS = N[C@@H](COP(=O)(O)O)C(=O)O
# T1: Rad9-pS (SMILES …)
# T1 peptide: Biotin-SGSSLEV[pS]EADATFYAKK-NH2
# T2: Rad9-pY (SMILES …)
# T2 peptide: Biotin-SGSSLEV[pY]EADATFYAKK-NH2
# T3: Plk1-pT (SMILES …)
# T3 peptide: Biotin-SGSAGPMQS[pT]PLNGAKK-NH2
# T4: Rad9-pT peptide with SGS linker (SGS-SLEVpTEADATFYAKK) (yeast, SMILES …)
# T4 construct: also called cognate pT peptide; Rad-pT
# T4 peptide: Biotin-SGSSLEV[pT]EADATFYAKK-NH2
# T5: WT FHA1 domain of S. cerevisiae Rad53, phage-displayed (protein III fusion on bacteriophage M13) (Saccharomyces cerevisiae; bacteriophage …, UniProt P22216 1-170)
# T5 construct: not shown: minor coat protein III (pIII, gene III product) of bacteriophage M13
# T5 sequence: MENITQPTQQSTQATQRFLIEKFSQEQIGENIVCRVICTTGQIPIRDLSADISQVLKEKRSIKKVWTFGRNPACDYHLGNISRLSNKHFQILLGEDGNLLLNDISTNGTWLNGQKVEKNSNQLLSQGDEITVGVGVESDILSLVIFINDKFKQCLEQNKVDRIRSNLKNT
# T6: WT FHA1 domain, GST fusion (Saccharomyces cerevisiae, UniProt P22216 1-170)
# T6 construct: Expressed in the bacterial cytoplasm; cell lysate used in the ELISA; The order GST then FHA1 follows the pGEX-2T vector; also called GST fusion of the WT FHA1 domain; FHA1-GST fusion protein; not shown: Glutathione S-transferase (GST) of the pGEX-2T vector (GE Healthcare)
# T6 sequence: T5 sequence
# B1: D2 variant of the FHA1 domain, phage-displayed (protein III fusion) (designed binder, not shown: small tags and cut ends)
# chain: T5 sequence with C34F, C38S, C154S
# notes: Selected from a mutagenic library built on the 3C-3S template; one added mutation S34F; also called position 34 F variant
# B2: D2 FHA1 variant with W at position 34, phage-displayed (designed binder)
# chain: T5 sequence with C34W, C38S, C154S
# notes: Made from D2 by Kunkel mutagenesis at position 34; also called S34W; not shown: N-terminal Flag peptide, cloning-site residues and M13 protein III (display carrier)
# B3: BRCT-pS (peptide)
# peptide: Biotin-SGSAYDI[pS]QVFPFAKKK-NH2
# SMILES: CC[C@H](C)[C@H](NC(=O)[C@H](CC(=O)O)NC(=O)[C@H](Cc1ccc(O)cc1)NC(=O)[C@H](C)NC(=O)[C@H](CO)NC(=O)CNC(=O)[C@H](CO)NC(=O)CCCC[C@@H]1SC[C@@H]2NC(=O)N[C@@H]21)C(=O)N[C@@H](COP(=O)(O)O)C(=O)N[C@@H](CCC(N)=O)C(=O)N[C@H](C(=O)N[C@@H](Cc1ccccc1)C(=O)N1CCC[C@H]1C(=O)N[C@@H](Cc1ccccc1)C(=O)N[C@@H](C)C(=O)N[C@@H](CCCCN)C(=O)N[C@@H](CCCCN)C(=O)N[C@@H](CCCCN)C(N)=O)C(C)C
# notes: also called Biotin-BRCT-pS
# Assays:
# Rad9-pS = target: T1, Rad9-pS; experiment: phage ELISA; biotinylated peptide on Neutravidin; anti-M13-HRP, A405 [a]
# Excerpt: (§1) Binding of phage particles was detected using anti-M13 antibody conjugated to HRP. FIG. 4(b) is a graph of the results of ELISA experiments of GST fusions of the WT FHA1 domain and three of its variants, 3C-3S, 4C-4S, and D2, that bound specifically to the cognate pT peptide (Rad9-pT; shown as solid histograms) immobilized on plastic microtiter plate wells via Neutravidin. Binding was detected using anti-GST antibody conjugated to HRP. The peptide sequences for Rad9-pT, Rad9-T, Rad9-pS, Rad9-pY, Plk1-pT and BRCT-pS are SGSSLEVp[…] (SEQ ID NO: 1), […] (SEQ ID NO: 2), SGSSLEVp[…] (SEQ ID NO: 3), SGSSLEVp[…] (SEQ ID NO: 4), […]p[…] (SEQ ID NO: 5) and SGSAYDIp[…] (SEQ ID NO: 6), respectively. The peptide sequence for the WT FHA1 domain from S. cerevisiae Rad53 protein kinase includes […] (SEQ ID NO:7), which includes residues 1-170 of S. cerevisiae Rad53 (SEQ ID NO:8) (Liao et al. (2000) J. Mol. Biol 304, 941-51; Durocher et al. (1999) Mol Cell 4). […] The β-strands are labeled from 1 to 11 in the WT FHA1 domain structure and the N- and C-termini are noted.
# Rad9-pY = target: T2, Rad9-pY; experiment: as above
# Excerpt: as §1
# Plk1-pT = target: T3, Plk1-pT; experiment: as above
# Excerpt: as §1
# BRCT-pS = target: B3; experiment: phage ELISA; biotinylated peptide on Neutravidin, A405
# Experimental: FIG. 9A is a photograph of 96-well plates containing phage supernatants from 96 individual clones, which were isolated after three rounds of selection, heated (50° C.), cooled, and added to microtiter plate wells coated with the phosphopeptide ligand. Binding of phage particles in the wells was monitored with an anti-M13 antibody conjugated to HRP. FIG. 9B is a graph showing the ratio of the ELISA signals for individual phage clones generated with wells contained with the target protein compared to a negative control protein (background).
# Phage particles produced from 96 clones isolated after round #3, were heated at 50° C. for 3 hr and cooled to RT. The phage supernatants were then incubated with both the target peptide (500 ng/well) immobilized on NeutrAvidin (1 μg/well) coated plate wells and an unrelated target (background). Binding phage clones were detected using anti-M13 antibody conjugated to HRP (GE Healthcare). The green, colored product of the enzymatic reaction in the microtiter plate wells was measured at 405 nm using the FLUOstar OPTIMA plate reader (BMG Labtech). […] In some cases, the signal over background ratio ranged from 3 to 20 for clones (FIG. 9B).
# [1] = target: T4, Rad9-pT peptide with SGS linker …; experiment: phage ELISA, normalised to Flag
# Excerpt: Through Kunkel mutagenesis (Yaffe (2002) Nat Rev Mol Cell Bol 3, 177-86), the amino acid residue at position 34 in the β1 strand of the D2 FHA 1 domain was replaced (from the naturally-occurring V) one at a time with each of the other naturally occurring amino acids and binding to the immobilized Rad9-pT peptide was monitored by phage ELISA. Phage binding was detected using anti-M13 antibody conjugated to Horse Radish Peroxidase (HRP). […] All the variants display an N-terminal Flag peptide and the amount of phage particles used for each variant in this experiment has been normalized for this epitope.
# To amplify the phage particles displaying the recombinant FHA1 variants, TG1 bacterial cells (5 mL; Stratagene) harboring the phagemid DNA were infected at mid-log (OD₆₀₀ₙₘ=0.5-0.6) with M13K07 helper phage (New England Biolabs) at a multiplicity of infection (MOI) of 20 for 1 h at 37° C. at 150 rpm. Infected cells were centrifuged, and the pellet was resuspended in fresh Luria Bertani medium (LB: 10 g Tryptone, 5 g Yeast extract, and 10 g NaCl per liter) supplemented with 50 μg/mL carbenicillin and 50 μg/ml kanamycin, and phage were amplified overnight at 30° C. at 250 rpm. All of the phage ELISA steps were performed at room temperature. […]
# [2] = target: T5, WT FHA1 domain of S. cerevisiae Rad53, …; experiment: phage ELISA; biotinylated peptide on Neutravidin; anti-M13-HRP, A405 [a]
# Excerpt: as §1
# [3] = target: T6, WT FHA1 domain, GST fusion; experiment: ELISA with GST fusion (cell lysate); biotinylated peptide on Neutravidin; anti-GST-HRP, A405 [b]
binder,measurement,setting,value
B1,binding result,Rad9-pS,no binding
same,binding result,Rad9-pY,no binding
same,binding result,Plk1-pT,no binding
same,binding result,BRCT-pS,no binding
B2,binding result,[1],no binding
B3,binding result,[2],no binding
same,binding result,[3],no binding
